For assay [1], the target named is T1, human IL11RA (analyte in the Biacore assay) (human, UniProt Q14626 23-370, limits assumed).
T1 construct: also called IL-11Rα
T1 sequence: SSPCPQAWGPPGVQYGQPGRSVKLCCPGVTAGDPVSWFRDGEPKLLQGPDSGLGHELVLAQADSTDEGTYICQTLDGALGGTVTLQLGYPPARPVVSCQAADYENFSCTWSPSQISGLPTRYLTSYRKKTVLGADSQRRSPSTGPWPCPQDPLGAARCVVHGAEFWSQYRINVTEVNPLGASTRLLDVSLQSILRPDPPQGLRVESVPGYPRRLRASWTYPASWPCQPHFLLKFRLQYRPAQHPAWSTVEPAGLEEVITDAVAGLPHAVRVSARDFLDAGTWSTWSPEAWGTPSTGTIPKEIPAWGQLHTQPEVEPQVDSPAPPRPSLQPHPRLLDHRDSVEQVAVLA
The experiment in a line: SPR, Biacore T200; X209 captured on an anti-mouse chip, human IL11RA as analyte (1.56 nM to 100 nM), 1:1 Langmuir fit. As for the experimental part: (§1) Binding of X209 to human IL11RA was measured on Biacore T200 (GE Healthcare). X209 was immobilized onto an anti-mouse capture chip. Interaction assays were performed with HEPES-buffered saline pH 7.4 containing 0.005% P20 and 0.5% BSA. A concentration range (1.56 nM to 100 nM) of the analyte (human IL11 RA) was injected over X209 and reference surfaces at a flow rate of 40 μl min⁻¹. Binding to mouse 1111ra1 was confirmed on Octet system (ForteBio) using a similar strategy. All sensograms were aligned and double-referenced⁴. Affinity and kinetic constants were determined by fitting the corrected sensorgrams with 1:1 Langmuir model. The equilibrium binding constant KD was determined by the ratio of kd/kₐ.

Another assay deals with T2, mouse IL-11Rα (Il11ra1) (mouse, UniProt Q64385 24-372, limits assumed).
T2 construct: also called mouse Il11ra1
T2 sequence (looked up): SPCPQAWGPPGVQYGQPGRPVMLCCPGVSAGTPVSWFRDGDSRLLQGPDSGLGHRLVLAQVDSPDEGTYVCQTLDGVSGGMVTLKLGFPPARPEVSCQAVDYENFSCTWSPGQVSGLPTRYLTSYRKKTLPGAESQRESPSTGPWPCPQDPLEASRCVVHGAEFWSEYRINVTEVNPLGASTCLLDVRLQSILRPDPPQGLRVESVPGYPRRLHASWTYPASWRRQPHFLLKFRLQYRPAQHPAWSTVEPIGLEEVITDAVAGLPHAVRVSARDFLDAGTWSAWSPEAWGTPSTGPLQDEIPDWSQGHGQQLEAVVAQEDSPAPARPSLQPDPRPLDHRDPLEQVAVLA
As to the kind of experiment: BLI, Octet (ForteBio). Background: Biolayer interferometry detects binding as a change in optical thickness at a sensor tip.

Assay [2] concerns the target T1, human IL11RA (analyte in the Biacore …). The experiment in a line: SPR (Biacore T200): X209 captured on an anti-mouse capture chip, human IL11RA injected as analyte at 1.56 nM to 100 nM, 1:1 Langmuir fit. The procedure: as §1
For orientation: Surface plasmon resonance follows binding to a sensor surface in real time, without labels.

B1: mouse anti-mouse IL-11Rα IgG X209 (antibody, V domains shown)
VH: QVQLQQPGAELVRPGSSVKLSCKASGYTFTNYWMHWLKQRPVQGLEWIGNIGPSDSKTHYNQKFKDKATLTVDKSSSTAYMQLNSLTSEDSAVYYCARGDYVLFTYWGQGTLVTVSA
VL: DIVLTQSPATLSLSPGERATLSCRASQSISNNLHWYQQKSHEAPRLLIKYASQSISGIPARFSGSGSGTDFTLSFSSLETEDFAVYFCQQSYSWPLTFGQGTKLEIK
notes: also called Enx209; neutralizing anti-IL11RA
Turning to B1, in assay [1], binding was characterised by a dissociation constant (Kd) of 6 nM. Besides, the binding result with mouse IL-11Rα (Il11ra1) is “binds”. Further, in assay [2], the Kd (as a rule, the concentration at which binding is half-saturated) turned out to be 6.01 nM; the koff (as a rule, the rate constant with which the complex falls apart) turned out to be 0.000757 s⁻¹; the kon (commonly a measure of how fast the partners come together) came to 126000 M⁻¹ s⁻¹.

These data come from US20200384083A1 (SINGAPORE HEALTH SERVICES PTE, published 2020).
